Series [1] can be described thus: Size exclusion chromatography (UP-SEC/SEC): monomer and HMW. It is filed as physicochemical. As to conditions: compared to Process 1 reference standard DS1-RS2. From the text:
(§1) The PLBL2 KO, PLA2G15 KO, LPL KO and wild-type process control materials were thawed and purified using Process 1 (see Example 1), while ultrafiltration/diafiltration (UF/DF) followed Process 4 (see Example 3). […] High molecular weight (HMW) by size exclusion chromatography (SEC), charge variants by weak cation exchange chromatography (WCX), low molecular weight (LMW) by non-reduced capillary electrophoresis sodium dodecyl sulfate (CE-SDS), free fatty acids (FFA) and PS20 levels were monitored during the stability study at various time points.
(§2) Antibody preparations derived from the knock-out samples and controls were tested for the presence of the three lipases by specific ELISA methods: PLBL2 and PLA2G15 were measured using CHO-specific in-house methods and LPL was measured using a commercial anti-mouse ELISA kit. PS20 stability was measured in samples that were incubated for different lengths of time (several time points over a 12-month period) and different temperatures (5° C., 25° C., 40° C.) using two different methods. One method measured the total amount of PS20 present in the sample; PS20 was quantified directly by using a RP-HPLC-CAD method. The other method assessed the breakdown of PS20 by measuring the amount of free fatty acid, mainly lauric acid that was released by hydrolysis. […] The generated signal is directly proportional to the quantity of FFAs released. […]
(In gel filtration, larger molecules generally elute earlier.)

The nature of series [2]: Non-reduced capillary gel electrophoresis (CGE-NR / CE-SDS): main peak and LMW. It is filed as physicochemical. As to conditions: compared to Process 1 reference standard DS1-RS2.
Text: as §1, §2

Series [3] deals with T1, IL-23 (Homo sapiens, UniProt Q9NPF7).
T1 sequence (Q9NPF7 20-189): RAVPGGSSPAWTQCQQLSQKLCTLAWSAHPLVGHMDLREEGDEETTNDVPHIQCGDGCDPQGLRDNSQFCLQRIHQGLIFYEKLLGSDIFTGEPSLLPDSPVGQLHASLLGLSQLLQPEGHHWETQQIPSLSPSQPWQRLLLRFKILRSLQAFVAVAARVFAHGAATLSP
T1 sequence (P29460 23-328 partner): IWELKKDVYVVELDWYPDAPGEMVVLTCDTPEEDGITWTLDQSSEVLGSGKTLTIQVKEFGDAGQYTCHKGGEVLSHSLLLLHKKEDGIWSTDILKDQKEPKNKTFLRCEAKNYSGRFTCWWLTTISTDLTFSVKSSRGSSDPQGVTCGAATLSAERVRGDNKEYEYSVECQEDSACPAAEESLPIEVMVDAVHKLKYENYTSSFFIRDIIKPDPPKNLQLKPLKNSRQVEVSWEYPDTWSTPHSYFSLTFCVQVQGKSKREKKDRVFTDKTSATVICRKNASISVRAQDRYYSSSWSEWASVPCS
In words: Inhibition of IL-23 stimulated IL-17 production. The class given is cell-based. The note with it: read-out: inhibition of IL-23 stimulated IL-17 production, inhibitory concentration (IC) 50.

The target of another series is T2, IL-12 (Homo sapiens, UniProt P29459+P29460).
T2 sequence (P29459 23-219): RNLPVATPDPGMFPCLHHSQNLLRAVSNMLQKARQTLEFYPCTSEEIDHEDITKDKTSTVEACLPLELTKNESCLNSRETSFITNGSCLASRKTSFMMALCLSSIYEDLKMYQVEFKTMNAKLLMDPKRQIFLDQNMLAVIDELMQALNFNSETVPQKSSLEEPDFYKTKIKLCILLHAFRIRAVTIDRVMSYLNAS
T2 sequence (P29460 23-328): T1 sequence (P29460 23-328 partner)
The series is described as follows: IL-12 effect / IL-12 stimulated IFN-γ production. It is filed as cell-based.

Series [4] has as its target T1, IL-23. The series is described as follows: Binding to human IL-23.
In another series the test system is healthy adult subjects. In words: Anti-drug antibody (ADA) incidence after single 150 mg SC dose, bridging electrochemiluminescence immunoassay. The class given is in vivo, human. The note with it: 113 days. How it is done: A single-dose, randomized, two-parallel-arm, open-label, multi-center study in healthy adult subjects was carried out. Subjects received a risankizumab 150 mg dose by subcutaneous (SC) injection in the abdomen using a 150 mg/ml formulation in a prefilled syringe (PFS). Arm 1: Risankizumab 150 mg/mL formulation in PFS produced by Process 4 (150 mg×1 SC injection) (test, N=132); Arm 2: Risankizumab 150 mg/mL formulation in PFS produced by Process 2 (150 mg×1 SC injection) (reference, N=130). Serial blood samples for anti-drug antibody (ADA) were collected over a period of 113 days. […]
The presence of ADA was determined using a validated titer based bridging electrochemiluminescence immunoassay as described below.
This is a qualitative assay designed to detect anti-risankizumab antibodies in human serum. Anti-drug antibodies (ADA) against risankizumab in human serum were detected using an electrochemiluminescent (ECL) immunoassay. […] This complex was bound to a blocked MSD-streptavidin (MSD-SA) plate and detected by a chemiluminescent signal that was generated when voltage was applied. […]
Samples were analyzed in a tiered approach. […]
The confirmatory assay measured the percent inhibition of ECL immunoassay signals of screened positive samples when spiked with excess risankizumab. […]

Another series in a line: ADCC activity. From the text:
(§3) Risankizumab has been designed with Leu234Aa and Leu235Aa mutations in Fc to diminish its Fc effector binding activity.

A short description of another series: CDC activity.
Text: as §3

Series [5] in a line: Hitchhiker protein spiking study, PS20-CAD subspecies method. It is filed as biochemical. The note with it: for activity to PS20 degradation: DP3 and DP4 materials spiked with enzyme (summary); for PS20 degradation: ~30 hours incubation at 25° C. From the text:
PS20-CAD subspecies method was used. This method was originally developed to qualitatively determine subspecies composition and to quantify the PS20 subspecies relative to a PS20 manufacturing standard. The HPLC system used in this study was an Agilent 1260 II infinity HPLC equipped with a quaternary pump, mobile phase degassing unit, refrigerated auto sampler, temperature controlled column compartment, and a Thermo Scientific charged aerosol detector (CAD). Data was collected by Waters Empower acquisition system. Methods for detecting PS20 using Charged Aerosol Detector (CAD) are also described in Example 10.
Since the system takes 70 minutes to finish each injection (labeled as “injection” in Table 19), repeated injections measured the degradation patterns (profiles) at different incubation times. All samples were kept in a 25° C. autosampler during the entire test.
PS20-CAD subspecies method described above was used.
The solution was mixed and tested. All samples were studied at 25° C.
The solution was mixed and tested. All samples were studied at 25° C. […] More information can be found in Table 21A.
The solution was mixed and tested. More information regarding the study design can be found in Table 21A.
The solution was mixed and tested. More information regarding the study design can be found in Table 21B below.
The solution was mixed and tested. More information regarding the study design can be found in Table 21B.

For “DS4-005: risankizumab Process 4 drug substance batch”, in [1], the “HMW peak by UP-SEC” value is “smaller”. The “LMW peak by CGE-NR” value in [2] is “smaller”.

As to “Immunoglobulin G1, anti-(human interleukin 23 subunit p19) (human-Mus musculus heavy chain), disulfide with human-Mus musculus κ-chain, dimer [risankizumab]”, the IC50 with IL-23 [3] was below 0.01 nM. The “inhibition of IL-12 stimulated IFN-γ production” value with IL-12 was “does not inhibit”. For the same molecule, the “effect on IL-12” value with IL-12 (maximum tested concentration (33 nM)) is “does not affect”. Further, in the series with IL-23 [4], the “binding to human IL-23” value is recorded as “high affinity”. For the same molecule, in the series on healthy adult subjects, the “treatment-emergent ADA incidence” value is “low”. Besides, the ADCC activity result in “ADCC activity” is “does not possess”. The COC activity result in “CDC activity” is “does not possess”.

“ustekinumab: comparator in the same IL-23 stimulated IL-17 production system [reference compound]”: the IC50 with IL-23 [3] stood at 0.167 nM.

B1: PLA2G7: Recombinant human PLA2G7/PAF-AH/LP-PLA2 protein (5106-PL-010, Bio-techne) (protein, UniProt Q13093 22-441, looked up)
Platelet-activating factor …: FDWQYINPVAHMKSSAWVNKIQVLMAAASFGQTKIPRGNGPYSVGCTDLMFDHTNKGTFLRLYYPSQDNDRLDTLWIPNKEYFWGLSKFLGTHWLMGNILRLLFGSMTTPANWNSPLRPGEKYPLVVFSHGLGAFRTLYSAIGIDLASHGFIVAAVEHRDRSASATYYFKDQSAAEIGDKSWLYLRTLKQEEETHIRNEQVRQRAKECSQALSLILDIDHGKPVKNALDLKFDMEQLKDSIDREKIAVIGHSFGGATVIQTLSEDQRFRCGIALDAWMFPLGDEVYSRIPQPLFFINSEYFQYPANIIKMKKCYSPDKERKMITIRGSVHQNFADFTFATGKIIGHMLKLKGDIDSNVAIDLSNKASLAFLQKHLGLHKDFDQWDCLIEGDDENLIPGTNINTTNQHIMLQNSSGIEKYN
For B1, in [5], the “activity to PS20 degradation” value is “moderate activities”. For the same molecule, the “PS20 degradation pattern (profile) versus pattern observed in DP2 materials” value in series [5] (DP3 spiked with 5 μg/mL enzyme, 25° C.) is recorded as “very different”. Moreover, in [5] (DP3 spiked with 5 μg/mL enzyme), the PS20 degradation result is given as “caused PS20 degradation with a relatively high activity”.

B2: PRDX6: Recombinant human Peroxiredoxin 6 protein (ab87631, Abcam) (protein, UniProt P30041 2-224, looked up)
Peroxiredoxin-6: PGGLLLGDVAPNFEANTTVGRIRFHDFLGDSWGILFSHPRDFTPVCTTELGRAAKLAPEFAKRNVKLIALSIDSVEDHLAWSKDINAYNCEEPTEKLPFPIIDDRNRELAILLGMLDPAEKDEKGMPVTARVVFVFGPDKKLKLSILYPATTGRNFDEILRVVISLQLTAEKRVATPVDWKDGDSVMVLPTIPEEEAKKLFPKGVFTKELPSGKKYLRYTPQP
Turning to B2, the “activity to PS20 degradation” value in [5] is reported as “very low activities”. In addition, the PS20 degradation entry in series [5] (DP3 spiked with 5 μg/mL enzyme) was “no detectable PS20 degradation”.

B3: PLA2G15: hitchhiker protein enzyme spiked into DP3/DP4 material (protein)
chain: VQRHPPVVLVPGDLGNQLEAKLDKPKVVHYLCSKRTDSYFTLWLNLELLLPVIIDCWIDNIRLVYNRTSRATQFPDGVDVRVPGFGETFSLEFLDPSKRTVGSYFHTMVESLVGWGYTRGEDLRGAPYDWRRAPNENGPYFLALREMIEEMYQMYGGPVVLVAHSMGNMYTLYFLQRQPQAWKDKYIHAFISLGAPWGGVAKTLRVLASGDNNRIPVIGPLKIREQQRSAVSTSWLLPYNHTWSHDKVFVHTPTTNYTLRDYHQFFQDIRFEDGWFMRQDTEGLVEAMMPPGVELHCLYGTGVPTPDSFYYESFPDRDPKICFGDGDGTVNLESVLQCQAWQSRQEHKVSLQELPGSEHIEMLANATTLAYLKRVLFEP
As for B3, the “PS20 degradation pattern (profile) versus pattern observed in DP2 materials” value in series [5] (DP3 spiked with 1 μg/mL PLA2G15, 25° C.) is listed as “matches”. The “PS20 degradation rate versus spiking level” value in series [5] (DP4 spiked with 0.01875-0.6 ng/mg PLA2G15, 25° C.) is listed as “concentration dependent PS20 degradation rates were observed”.

Source of the values: patent US20250313619A1, “RISANKIZUMAB COMPOSITIONS” (ABBVIE INC., priority 0001, published 2025).
